{"source": "paper PMC2845979", "about": "(Nature, 2009)", "proteins": {"B1": {"name": "minimal functional chicken ASIC1 construct (cASIC1mfc) (domain or fragment, UniProt Q1XA76 2-466, looked up)", "chain": "MDLKVDEEEVDSGQPVSIQAFASSSTLHGISHIFSYERLSLKRVVWALCFMGSLALLALVCTNRIQYYFLYPHVTKLDEVAATRLTFPAVTFCNLNEFRFSRVTKNDLYHAGELLALLNNRYEIPDTQTADEKQLEILQDKANFRNFKPKPFNMLEFYDRAGHDIREMLLSCFFRGEQCSPEDFKVVFTRYGKCYTFNAGQDGKPRLITMKGGTGNGLEIMLDIQQDEYLPVWGETDETSFEAGIKVQIHSQDEPPLIDQLGFGVAPGFQTFVSCQEQRLIYLPPPWGDCKATTGDSEFYDTYSITACRIDCETRYLVENCNCRMVHMPGDAPYCTPEQYKECADPALDFLVEKDNEYCVCEMPCNVTRYGKELSMVKIPSKASAKYLAKKYNKSEQYIGENILVLDIFFEALNYETIEQKKAYEVAGLLGDIGGQMGLFIGASILTVLELFDYAYEVIKHRLCR"}}, "target": "the molecule itself", "experiment": "crystal structure", "data": [{"protein": "B1", "values": [{"measurement": "stoichiometry N", "value": 3}]}]}
